B1: FtsZ(1-379) (purified) (domain or fragment, E. coli, UniProt P0A9A6 1-379, looked up)
chain: MFEPMELTNDAVIKVIGVGGGGGNAVEHMVRERIEGVEFFAVNTDAQALRKTAVGQTIQIGSGITKGLGAGANPEVGRNAADEDRDALRAALEGADMVFIAAGMGGGTGTGAAPVVAEVAKDLGILTVAVVTKPFNFEGKKRMAFAEQGITELSKHVDSLITIPNDKLLKVLGRGISLLDAFGAANDVLKGAVQGIAELITRPGLMNVDFADVRTVMSEMGYAMMGSGVASGEDRAEEAAEMAISSPLLEDIDLSGARGVLVNITAGFDLRLDEFETVGNTIRAFASDNATVVIGTSLDPDMNDELRVTVVATGIGMDKRPEITLVTNKQVQQPVMDRYQQHGMAPLTQEQKPVAKVVNDNAPQTAKEPDYLDIPAFLR
notes: also called FtsZ lacking the CTV residues; FtsZ without the CTV region; source: E. coli C41(DE3), purified (25% saturated ammonium sulfate cut)
B2: FtsZ(DQAK) (purified) (natural protein, E. coli, UniProt P0A9A6 1-383, looked up)
chain: MFEPMELTNDAVIKVIGVGGGGGNAVEHMVRERIEGVEFFAVNTDAQALRKTAVGQTIQIGSGITKGLGAGANPEVGRNAADEDRDALRAALEGADMVFIAAGMGGGTGTGAAPVVAEVAKDLGILTVAVVTKPFNFEGKKRMAFAEQGITELSKHVDSLITIPNDKLLKVLGRGISLLDAFGAANDVLKGAVQGIAELITRPGLMNVDFADVRTVMSEMGYAMMGSGVASGEDRAEEAAEMAISSPLLEDIDLSGARGVLVNITAGFDLRLDEFETVGNTIRAFASDNATVVIGTSLDPDMNDELRVTVVATGIGMDKRPEITLVTNKQVQQPVMDRYQQHGMAPLTQEQKPVAKVVNDNAPQTAKEPDYLDIPAFLRDQAK
notes: FtsZ of E. coli with the native CTV KQAD replaced by DQAK (net-neutral); pKHH9, pET-21b(+); also called net-neutral CTV mutant; source: E. coli C41(DE3), purified (25% saturated ammonium sulfate cut)
B3: FtsZ(QQQQ) (purified) (natural protein, E. coli, UniProt P0A9A6 1-383, looked up)
chain: MFEPMELTNDAVIKVIGVGGGGGNAVEHMVRERIEGVEFFAVNTDAQALRKTAVGQTIQIGSGITKGLGAGANPEVGRNAADEDRDALRAALEGADMVFIAAGMGGGTGTGAAPVVAEVAKDLGILTVAVVTKPFNFEGKKRMAFAEQGITELSKHVDSLITIPNDKLLKVLGRGISLLDAFGAANDVLKGAVQGIAELITRPGLMNVDFADVRTVMSEMGYAMMGSGVASGEDRAEEAAEMAISSPLLEDIDLSGARGVLVNITAGFDLRLDEFETVGNTIRAFASDNATVVIGTSLDPDMNDELRVTVVATGIGMDKRPEITLVTNKQVQQPVMDRYQQHGMAPLTQEQKPVAKVVNDNAPQTAKEPDYLDIPAFLRQQQQ
notes: FtsZ of E. coli with the native CTV KQAD replaced by QQQQ (net-neutral); pLT1, pET-21b(+); also called net-neutral CTV mutant; source: E. coli C41(DE3), purified (25% saturated ammonium sulfate cut)
B4: FtsZ(DQAD) (purified) (natural protein, E. coli, UniProt P0A9A6 1-383, looked up)
chain: MFEPMELTNDAVIKVIGVGGGGGNAVEHMVRERIEGVEFFAVNTDAQALRKTAVGQTIQIGSGITKGLGAGANPEVGRNAADEDRDALRAALEGADMVFIAAGMGGGTGTGAAPVVAEVAKDLGILTVAVVTKPFNFEGKKRMAFAEQGITELSKHVDSLITIPNDKLLKVLGRGISLLDAFGAANDVLKGAVQGIAELITRPGLMNVDFADVRTVMSEMGYAMMGSGVASGEDRAEEAAEMAISSPLLEDIDLSGARGVLVNITAGFDLRLDEFETVGNTIRAFASDNATVVIGTSLDPDMNDELRVTVVATGIGMDKRPEITLVTNKQVQQPVMDRYQQHGMAPLTQEQKPVAKVVNDNAPQTAKEPDYLDIPAFLRDQAD
notes: FtsZ of E. coli with the CTV DQAD (net-negative) in place of KQAD; pKHH7, pET-21b(+); also called K380D; net-negative CTV mutant; source: E. coli C41(DE3), purified (20% ammonium sulfate cut)
B5: FtsZ(KQAK) (purified) (natural protein, E. coli, UniProt P0A9A6 1-383, looked up)
chain: MFEPMELTNDAVIKVIGVGGGGGNAVEHMVRERIEGVEFFAVNTDAQALRKTAVGQTIQIGSGITKGLGAGANPEVGRNAADEDRDALRAALEGADMVFIAAGMGGGTGTGAAPVVAEVAKDLGILTVAVVTKPFNFEGKKRMAFAEQGITELSKHVDSLITIPNDKLLKVLGRGISLLDAFGAANDVLKGAVQGIAELITRPGLMNVDFADVRTVMSEMGYAMMGSGVASGEDRAEEAAEMAISSPLLEDIDLSGARGVLVNITAGFDLRLDEFETVGNTIRAFASDNATVVIGTSLDPDMNDELRVTVVATGIGMDKRPEITLVTNKQVQQPVMDRYQQHGMAPLTQEQKPVAKVVNDNAPQTAKEPDYLDIPAFLRKQAK
notes: FtsZ of E. coli with the native CTV KQAD replaced by KQAK (net-positive); pKHH8, pET-21b(+); also called net-positive CTV mutant; source: E. coli C41(DE3), purified (25% saturated ammonium sulfate cut)
B6: FtsZ(RQAR) (purified) (natural protein, E. coli, UniProt P0A9A6 1-383, looked up)
chain: MFEPMELTNDAVIKVIGVGGGGGNAVEHMVRERIEGVEFFAVNTDAQALRKTAVGQTIQIGSGITKGLGAGANPEVGRNAADEDRDALRAALEGADMVFIAAGMGGGTGTGAAPVVAEVAKDLGILTVAVVTKPFNFEGKKRMAFAEQGITELSKHVDSLITIPNDKLLKVLGRGISLLDAFGAANDVLKGAVQGIAELITRPGLMNVDFADVRTVMSEMGYAMMGSGVASGEDRAEEAAEMAISSPLLEDIDLSGARGVLVNITAGFDLRLDEFETVGNTIRAFASDNATVVIGTSLDPDMNDELRVTVVATGIGMDKRPEITLVTNKQVQQPVMDRYQQHGMAPLTQEQKPVAKVVNDNAPQTAKEPDYLDIPAFLRRQAR
notes: FtsZ of E. coli with the native CTV KQAD replaced by RQAR (net-positive); pAM3, pET-21b(+); also called net-positive CTV mutant; source: E. coli C41(DE3), purified (25% saturated ammonium sulfate cut)
B7: FtsZ(NRNKRG) (purified) (natural protein, E. coli | B. subtilis)
chain: MFEPMELTNDAVIKVIGVGGGGGNAVEHMVRERIEGVEFFAVNTDAQALRKTAVGQTIQIGSGITKGLGAGANPEVGRNAADEDRDALRAALEGADMVFIAAGMGGGTGTGAAPVVAEVAKDLGILTVAVVTKPFNFEGKKRMAFAEQGITELSKHVDSLITIPNDKLLKVLGRGISLLDAFGAANDVLKGAVQGIAELITRPGLMNVDFADVRTVMSEMGYAMMGSGVASGEDRAEEAAEMAISSPLLEDIDLSGARGVLVNITAGFDLRLDEFETVGNTIRAFASDNATVVIGTSLDPDMNDELRVTVVATGIGMDKRPEITLVTNKQVQQPVMDRYQQHGMAPLTQEQKPVAKVVNDNAPQTAKEPDYLDIPAFLRNRNKRG
notes: FtsZ of E. coli up to the CTV; the native CTV KQAD (380-383) is replaced by the next part; also called EcftsZCTVB; source: E. coli C41(DE3), purified (25% saturated ammonium sulfate cut)
B8: GAL4 AD-FtsZ(RQAR) fusion (natural protein, E. coli, UniProt P0A9A6 1-383, looked up)
chain: MFEPMELTNDAVIKVIGVGGGGGNAVEHMVRERIEGVEFFAVNTDAQALRKTAVGQTIQIGSGITKGLGAGANPEVGRNAADEDRDALRAALEGADMVFIAAGMGGGTGTGAAPVVAEVAKDLGILTVAVVTKPFNFEGKKRMAFAEQGITELSKHVDSLITIPNDKLLKVLGRGISLLDAFGAANDVLKGAVQGIAELITRPGLMNVDFADVRTVMSEMGYAMMGSGVASGEDRAEEAAEMAISSPLLEDIDLSGARGVLVNITAGFDLRLDEFETVGNTIRAFASDNATVVIGTSLDPDMNDELRVTVVATGIGMDKRPEITLVTNKQVQQPVMDRYQQHGMAPLTQEQKPVAKVVNDNAPQTAKEPDYLDIPAFLRRQAR
notes: FtsZ of E. coli with the native CTV KQAD replaced by RQAR (net-positive); source: yeast two-hybrid fusion (pDEST-GADT7-ftsZ(RQAR) in S. cerevisiae SL3004, diploid after mating)
B9: GAL4 AD-FtsZ(QQQQ) fusion (natural protein, E. coli, UniProt P0A9A6 1-383, looked up)
chain: MFEPMELTNDAVIKVIGVGGGGGNAVEHMVRERIEGVEFFAVNTDAQALRKTAVGQTIQIGSGITKGLGAGANPEVGRNAADEDRDALRAALEGADMVFIAAGMGGGTGTGAAPVVAEVAKDLGILTVAVVTKPFNFEGKKRMAFAEQGITELSKHVDSLITIPNDKLLKVLGRGISLLDAFGAANDVLKGAVQGIAELITRPGLMNVDFADVRTVMSEMGYAMMGSGVASGEDRAEEAAEMAISSPLLEDIDLSGARGVLVNITAGFDLRLDEFETVGNTIRAFASDNATVVIGTSLDPDMNDELRVTVVATGIGMDKRPEITLVTNKQVQQPVMDRYQQHGMAPLTQEQKPVAKVVNDNAPQTAKEPDYLDIPAFLRQQQQ
notes: FtsZ of E. coli with the native CTV KQAD replaced by QQQQ (net-neutral); source: yeast two-hybrid fusion (pDEST-GADT7-ftsZ(QQQQ) in S. cerevisiae SL3004, diploid after mating)
B10: GAL4 AD-FtsZ(DQAK) fusion (natural protein, E. coli, UniProt P0A9A6 1-383, looked up)
chain: MFEPMELTNDAVIKVIGVGGGGGNAVEHMVRERIEGVEFFAVNTDAQALRKTAVGQTIQIGSGITKGLGAGANPEVGRNAADEDRDALRAALEGADMVFIAAGMGGGTGTGAAPVVAEVAKDLGILTVAVVTKPFNFEGKKRMAFAEQGITELSKHVDSLITIPNDKLLKVLGRGISLLDAFGAANDVLKGAVQGIAELITRPGLMNVDFADVRTVMSEMGYAMMGSGVASGEDRAEEAAEMAISSPLLEDIDLSGARGVLVNITAGFDLRLDEFETVGNTIRAFASDNATVVIGTSLDPDMNDELRVTVVATGIGMDKRPEITLVTNKQVQQPVMDRYQQHGMAPLTQEQKPVAKVVNDNAPQTAKEPDYLDIPAFLRDQAK
notes: FtsZ of E. coli with the native CTV KQAD replaced by DQAK (net-neutral); source: yeast two-hybrid fusion (pDEST-GADT7-ftsZ(DQAK) in S. cerevisiae SL3004, diploid after mating)

One series deals with the molecule itself. The experiment in a line: sedimentation of FtsZ polymers; FtsZ or CTV mutant 5 μM alone in 50 mM K-MOPS pH 6.5, 50 mM KCl, 2.5 mM MgCl2, 3 μM BSA, 1 mM GTP, room temperature; TLA100.2, 80,000 rpm, 10 min; percent of FtsZ in the pellet by SDS-PAGE.
Settings: not given
For B1, the binding result was “binds”.

In the case of B2, the binding result is recorded as “binds”.

As to B3, the binding result is given as “binds”.

As to B4, the binding result is given as “binds”.

Turning to B5, the binding result was “binds”.

For the molecule B6, the binding result is on record as “binds”.

Regarding B7, the binding result is recorded as “binds”.

The next series has as its target T1, GAL4 BD-ZapD fusion (E. coli, UniProt P36680 1-247).
T1 construct: ZapD, Z-ring stabilizer of E. coli; also called pDEST-GBKT7-zapD; source: yeast two-hybrid fusion (pDEST-GBKT7-zapD in S. cerevisiae PJ69-4A, diploid after mating)
T1 sequence (looked up): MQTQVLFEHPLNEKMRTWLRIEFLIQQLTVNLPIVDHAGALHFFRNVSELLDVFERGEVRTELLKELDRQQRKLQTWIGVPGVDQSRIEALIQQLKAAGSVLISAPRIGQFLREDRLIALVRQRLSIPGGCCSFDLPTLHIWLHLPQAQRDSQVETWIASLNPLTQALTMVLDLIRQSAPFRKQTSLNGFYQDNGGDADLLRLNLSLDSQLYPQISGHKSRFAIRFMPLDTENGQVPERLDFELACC
The experiment in a line: two-hybrid; GAL4 BD-ZapD with GAL4 AD-FtsZ fusions in diploid yeast grown in YNB (-Leu-Trp) at 30°C; beta-galactosidase activity in Miller units, mean of 10 independent trials. Particulars: partners not purified.
B8 came in with a β-galactosidase activity of 155 Miller units.

Consider B9, for which the β-galactosidase activity came to 115 Miller units.

On to B10, for which the β-galactosidase activity stood at 170 Miller units.

(Values after article PMC4835091, “Characterization of the FtsZ C-Terminal Variable (CTV) Region in Z-Ring Assembly and Interaction with the Z-Ring Stabilizer ZapD in E. coli Cytokinesis” (PLoS ONE, 2016).)
